{"source": "patent US9956304B2", "about": "“Contrast agents, methods for preparing contrast agents, and methods of imaging” (GEORGIA STATE UNIVERSITY RESEARCH FOUNDATION, INC., priority 2012, dated 2018)", "molecules": {"B1": {"name": "ProCA32: parvalbumin-scaffold protein MRI contrast agent with two Gd3+ binding sites; calcium-binding protein variant (S56D, F103W) (protein)", "chain": "MSMTDLLNAEDIKKAVGAFSATDSFDHKKFFQMVGLKKKSADDVKKVFHMLDKDKDGFIEEDELGFILKGFSPDARDLSAKETKMLMAAGDKDGDGKIGVEEWSTLVAES", "modifications": "Gd3+ bound; ProCA3"}}, "key": {"[1]": {"assay": "T1- and T2-weighted MRI of liver and blood vessels", "format": "in vivo, mice", "method": "Because the enhanced T1- and T2-weighted images have different effects of imaging contrast (brighter or darker, respectively), there is an enhanced probability of detecting the targeted tumor tissue. In contrast, the currently available approved liver contrast agents such as Eovist® have a very short fast phase (sec.) and liver uptake phase (approximately 3 min) in human. The mouse halftime is much shorter. Due this limitation, with these agents, it is not possible to obtain both high quality imaging for small animal. For human, their applications are also limited by their low relaxivity and short half-life. It is possible to obtain very high quality imaging by applying our contrast agent to both low and high field strengths such as 0.47-9.4 T.\nLonger blood circulation of ProCA will benefit the MRI guided intervention therapy […], since such therapy usually performed for a very long time. Long blood circulation time of ProCA32 in blood also promising for the application of DCE-MRI. Arterial input function (AIF) in DCE-MRI experiment is the key experiment for successful calculating tumor permeability. However, it is hard to accurate determine AIF of current clinically available MRI contrast agents, since the blood circulation time of current clinically available MRI contrast agents is too short. […]"}, "[2]": {"conditions": "mouse, in vivo"}, "[3]": {"assay": "r1 and r2 relaxivity, mini-spec 60 MHz 37 C", "format": "physicochemical"}, "[4]": {"conditions": "mouse, in vivo", "remark": "listed apart in the source"}, "[5]": {"assay": "Serum stability (SDS-PAGE, mass spectrum, immuno-blot)", "conditions": "50% serum"}, "[6]": {"assay": "Water coordination number by Tb3+ luminescence lifetime", "format": "physicochemical", "conditions": "Tb^3+ luminescence lifetime in H2O and D2O", "method": "The water coordination number of Tb^3+ in ProCA was measured by Tb^3+ luminescence lifetime experiments. The determined water number for calcium-binding protein WT is 1.3, which is consistent with reported value^31.\nTb^3+ luminescent life time decay in H2O and D2O solvents is measured to characterize the water coordination number of the inner sphere of metal binding sites. WT calcium-binding protein has averaged water number of 1.3, which is consistent with reported value."}, "[7]": {"assay": "Heat stability during purification", "format": "physicochemical", "method": "These protein solutions were load to FPLC equipped with Hi-trap Q column. After binding to the column, the unbounded component was first washed with 7 column volumes (CV) of buffer A (10 mM HEPES buffer at pH 8.0). Then, buffer B (10 mM HEPES buffer, 1 M NaCl at pH 8.0) concentration was increased to 25% within 7 CV. The column was further washed with 25% of buffer B for 2 CV and then increase to 100% of buffer B of 1 CV to wash out every component bounded to the column. The fractions with ProCA32 elutions were determined by UV abs and SDS-PAGE."}, "[8]": {"assay": "Gd3+ binding affinity by Tb3+-chelator buffer system and Gd3+ competition", "conditions": "vs wild type protein scaffold"}, "[9]": {"assay": "In vitro MRI detection limit, T1-weighted spin echo at 7 T", "format": "physicochemical", "conditions": "printed partly as 'at least'", "source_text": "Less contrast agents are acquired to acquired good image enhancement when the relaxivity of the contrast agent improved."}, "[10]": {"assay": "r1 relaxivity at 7 T, inversion recovery", "format": "physicochemical", "conditions": "room temperature", "source_text": "With the development of high field MRI scanner, there is a strong need to develop the contrast agents with high relaxivity in high magnetic field strength. However, the relaxivity of macromolecular contrast agents always has dramatic drop at high magnetic field. Caravan and Luther point out the contrast agents with optimized relaxivity in high field should have a rotation correlation time (τR) around 2 ns. We tested our Gd-calcium-binding protein variants in 7 T Varian MRI scanner using inversion recovery sequence. […] Other ProCA3s also have a per Gd r1 relaxivity around 20 mM^−1s^−1 at 7 T and room temperature."}}, "note": "Several values for one entry are separate records, joined by “and”; a condition that tells them apart may be missing. Equal entries are not always repeated.", "data": [{"molecule": "B1", "values": [{"measurement": "liver in T2-weighted sequence", "setting": "[1]; 7 min after tail vein injection", "value": "the liver became darker"}, {"measurement": "liver in T1-weighted spin echo", "setting": "[1]; 15 min", "value": "the liver showing enhanced an MR signal"}, {"measurement": "clearance", "setting": "[2]", "value": "about 0.13 l/kg"}, {"measurement": "excretion half-life", "setting": "[2]", "value": "around 2.8 hours"}, {"measurement": "per Gd r1", "setting": "[3]", "value": 30, "unit": "mmol⁻¹ s⁻¹"}, {"measurement": "per particle r1", "setting": "[3]", "value": 60, "unit": "mmol⁻¹ s⁻¹"}, {"measurement": "blood half-life longer than that of Gd-DTPA", "setting": "[4]", "value": "more than 100 times"}, {"measurement": "stable in serum", "setting": "[5]", "value": "at least 3 days"}, {"measurement": "water coordination number", "setting": "[6]", "value": 0.4}, {"measurement": "water coordination number", "setting": "[6]; listed as PROCA32", "value": 0.44}, {"measurement": "heat stability", "setting": "[7]", "value": "very stable at 90 °C"}, {"measurement": "higher Tb^3+ and Gd^3+ binding affinity compared with wild type", "setting": "[8]", "value": "10^11 fold"}, {"measurement": "concentration detectable in vitro by MRI", "setting": "[9]", "value": "2.5 µM and 2 µM"}, {"measurement": "per Gd r1 relaxivity at 7 T", "setting": "[10]", "value": 18, "unit": "mM⁻¹ s⁻¹"}]}]}
